Drawing on article PMC9519379 (Cell Reports Medicine, 2022), this text covers IC50, koff and kon for one substance.

Assay [1] has as its target SARS-CoV-2 Spike protein Trimer (Wild type) (SARS-CoV-2) (UniProt P0DTC2). Nature of the assay: single-molecule force spectroscopy.
The target in assay [2] is SARS-CoV-2 Spike Trimer (B.1.1.529/Omicron) (SARS-CoV-2) (UniProt P0DTC2). Put plainly: single-molecule force spectroscopy.

As usually defined, the IC50 is the point on the concentration scale where inhibition reaches its midpoint. A higher IC50 goes with weaker potency in that assay. The term koff denotes the rate constant with which the complex falls apart. A high value points to a short-lived complex. Broadly, the kon is the rate constant with which the complex forms. A lower kon goes with slow association. As to “H84T-banana lectin (H84T-BanLec) (from UniProt Q8L5H4 1-141) (designed binder)”, in assay [1], the IC50 worked out at 5.2 nM, the koff was determined as 0.046 s⁻¹ and the association rate constant (kon) stood at 99800 M⁻¹ s⁻¹. Besides, in assay [2], the 50% inhibitory concentration (IC50) stood at 2.6 nM.
